Laboratory results as given in patent US20190330333A1 (KAO, published 2019).
Where no end group is shown, it is not given here.

Tests used:
active GIP, GIP(1-42) = biological target: T1, active GIP, GIP(1-42); experiment: sandwich ELISA, anti-total GIP mAb capture, biotinylated antibody at 1 ug/mL as detection, GIP 8.2 to 2000 pg/mL
T1 construct: The assay was built on a Human (total) GIP ELISA kit
T1 peptide: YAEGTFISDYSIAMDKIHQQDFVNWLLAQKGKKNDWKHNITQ
Method: (§1) The reactivity between the monoclonal antibody prepared in Production Example 1 and active GIP was confirmed by ELISA. The amino group of the anti-active GIP monoclonal antibody was biotinylated with NH2 group biotinylation kit (manufactured by Dojindo Laboratories). ELISA was performed using the produced biotinylated anti-active GIP monoclonal antibody at 1 μg/mL instead of a detection antibody, GIP detection antibody (biotinylated anti-total GIP monoclonal antibody), included in Human (total) GIP ELISA kit (manufactured by EMD Millipore Corporation). A […] dilution series of GIP(1-42) or GIP(3-42) was prepared in 6 steps (8.2 to 2000 pg/mL) with a 2000 pg/mL solution as the highest concentration. By using an anti-total GIP monoclonal antibody (included in Human GIP (total) ELISA kit manufactured by EMD Millipore Corporation) as a capture antibody, the biotinylated anti-active GIP monoclonal antibody as a detection antibody, and a peroxidase-streptavidin conjugate for detection, sandwich ELISA was conducted to prepare a calibration curve with GIP concentration on the X-axis and 450 nm-590 nm absorbance on the Y-axis (FIG. 1).

[1] = biological target: T2, PEGylated N-terminus 13 amino acids of inactive GIP (GIP(3-15)), antigen (2) for measurement (also: PEGylated, position not given here); experiment: ELISA, immobilized peptide antigen, hybridoma culture supernatant
T2 construct: Immobilized on the ELISA plate; also called PEGylated GIP(3-15)
T2 peptide: EGTFISDYSIAMD
Method: (§2) The reaction between the hybridoma culture supernatant and the antigen (1) and (2) for measurement was evaluated by ELISA using immobilized antigen (1) and (2), and hybridomas that are positive for the antigen (1) and negative for the antigen (2) were selected as anti-active GIP monoclonal antibody-producing hybridomas.
(§3) Antibody-producing hybridoma was cloned by culturing the hybridomas obtained above through a limiting dilution method to obtain single colonies, and single colony-forming wells were subjected to ELISA again to establish 9B9H5-B9 line, which produces an antibody that is positive for the antigen (1) and negative for the antigen (2) (WO 2016/104439).

[2] = biological target: T3, PEGylated N-terminus 15 amino acids of active GIP (GIP(1-15)), antigen (1) for measurement (also: PEGylated, position not given here); experiment: as above
T3 construct: Immobilized on the ELISA plate; The assay antigen carries no KLH; only the immunogen was KLH-linked; also called PEGylated GIP(1-15)
T3 peptide: YAEGTFISDYSIAMD
Method: as §2, §3

inactive GIP, GIP(3-42) = biological target: T4, inactive GIP, GIP(3-42); experiment: sandwich ELISA, anti-total GIP mAb capture, biotinylated antibody at 1 ug/mL as detection
T4 peptide: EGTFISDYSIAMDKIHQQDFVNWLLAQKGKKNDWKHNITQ
Method: as §1

B1: anti-active GIP monoclonal antibody produced by hybridoma 9B9H5-B9 line (Production Example 1) (antibody, V domains shown)
VH: QVQLQQPGAELVKPGASVKLSCKASGYTFTSFWMHWVIQRPGQGLEWIGEMNPSDGRTHFNEKFKTKATLTIDTSSNTAYMELNSLTSEDSAVYYCARRMEDWGQGTLVTVSA
VL: DIKMTQSPSSMYASLGERVTITCKASQDINSYLGWFQQKPGKSPKTLIYGANRLVDGVPSRFSGSGSGQDYSLTISSLEYDDMGIYYCLQYDEFPLTFGAGTKLELKR
notes: Mouse (BALB/c) hybridoma monoclonal antibody; Culture supernatant was used in the screening and cloning ELISA; also called anti-active GIP antibody
Active GIP, GIP(1-42)
  binding result: binds
[1]
  binding result: no binding
[2]
  binding result: binds
Inactive GIP, GIP(3-42)
  binding result: no binding
